Measured values: patent US20130095104A1 (OMEROS, published 2013)

T1: human Frizzled-10 (FZD10) (human, UniProt Q9ULW2 21-581)
T1 construct: no signal peptide limits are stated; also called FZ10; CD350
T1 sequence: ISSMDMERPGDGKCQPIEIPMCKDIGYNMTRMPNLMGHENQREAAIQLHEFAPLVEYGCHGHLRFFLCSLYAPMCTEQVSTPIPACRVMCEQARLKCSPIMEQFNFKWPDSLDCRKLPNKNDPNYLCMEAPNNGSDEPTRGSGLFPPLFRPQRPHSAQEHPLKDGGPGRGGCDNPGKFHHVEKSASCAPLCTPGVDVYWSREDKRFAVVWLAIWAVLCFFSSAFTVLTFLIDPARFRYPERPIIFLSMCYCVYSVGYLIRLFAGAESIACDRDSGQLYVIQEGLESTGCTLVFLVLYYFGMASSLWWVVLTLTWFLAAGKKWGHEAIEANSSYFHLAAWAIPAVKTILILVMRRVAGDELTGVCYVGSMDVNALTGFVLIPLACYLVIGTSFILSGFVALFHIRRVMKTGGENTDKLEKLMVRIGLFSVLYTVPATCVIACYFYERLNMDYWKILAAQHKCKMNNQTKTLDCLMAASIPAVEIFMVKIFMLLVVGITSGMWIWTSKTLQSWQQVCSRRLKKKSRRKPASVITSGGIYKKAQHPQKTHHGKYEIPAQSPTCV


Legend:
[1] = target: T1, human Frizzled-10 (FZD10); assay: saturation binding of recombinant antibody on SYO-1 cells (FZD10+), flow cytometry MFI against Ab (nM)
Experimental: Affinity was determined by measuring saturation binding kinetics of the recombinant antibodies on SYO-1 cells.

[2] = target: T1, human Frizzled-10 (FZD10); assay: saturation binding of recombinant antibody on SYO-1 cells
[3] = target: T1, human Frizzled-10 (FZD10); assay: saturation binding on SYO-1 cells, flow cytometry; B9L9.3 on SYO-1 cells, Example 1 (FIG. 3)
Experimental: (§1) Recombinant antibodies were generated by cloning PCR-amplified V regions (Cummings et al., 2007 Supra) into a vector that supported expression of human IgG1 in 293F cells. Saturation binding kinetics were determined by either staining FZD10-specific DTLacO cells with various concentrations of fluorescent-labeled soluble antigen, or by staining FZD10-transfected cells or cancer cell lines intrinsically expressing FZD10 with various concentrations of the recombinant chimeric anti-FZD10 mAbs. To assay cell surface FZD10 binding, cells were stained with chimeric mAb clones B9A5 (parent), B9132.2 and B9L9.3 (progeny) or secondary antibody alone, all at concentrations ranging from […] to 800 nM, and analyzed by immunocytofluorimetry.

[4] = target: T1, human Frizzled-10 (FZD10); assay: saturation binding of recombinant antibody on SYO-1 cells; Table 2 comparison with the humanized antibody
[5] = target: T1, human Frizzled-10 (FZD10); assay: saturation binding on SYO-1 cells, flow cytometry; B9L32.2 on SYO-1 cells
Experimental: as §1

| Binder | EC50 (read off the curve) [1] | Kd [2] | Kd [3] | Kd [4] | Kd [5] |
| --- | --- | --- | --- | --- | --- |
| humanized B9L9.3 antibody (antibody, human IgG1, lambda, V domains shown, Mature humanized heavy chain with human IgG1 constant region and mature humanized light chain with human lambda constant region; also called hB9L9.3; humanized B9L9.3 mAb) VH: EVQLVESGGGLVQPGGSLRLSCAASGFTFSSFNMFWVRQAPGKGLEWVAGIDDDGSYPNYGSAVKGRATISRDNSKNTLYLQMNSLRAEDTAVYYCAKSGYGGSWGGYIADDIDAWGQGTLVTVSS VL: ELTQPPSVSVSPGQTARITCSGDGSYAGSYYYGWYQQKPGQAPVTLIYYNNKRPSGIPERFSGSLSGSTNTLTISGVQAEDEADYYCGSADNSGAAFGGGTKLTVLG | ~0.2 nM | 0.22 nM | – | – | – |
| chimeric anti-FZD10 mAb B9L9.3 (antibody, V domains shown, also called Chimeric B9L9.3; progeny clone B9L9.3) VH: AVTLDESGGGLQTPGGALSLVCKASGFTFSSFNMFWVRQEPGKGLEWVAGIDDDGSYPNYGSAVKGRATISRDNGQSTLRLQLNNLRAEDTGTYFCAKSGYGGSWGGYIADDIDAWGHGTEVIVSS VL: ALTQPASVSANPGETVKITCSGDGSYAGSYYYGWYQQKAPGSAPVTLIYYNNKRPSDIPSRFSGSLSGSTNTLTITGVRADDEAVYFCGSADNSGAAFGAGTTLTVL | ~0.1 nM | – | 0.22 nM | 0.16 nM | – |
| chimeric anti-FZD10 mAb B9L32.2 (antibody, human IgG1, V domains shown, also called progeny clone B9L32.2) VH: AVTLDESGGGLQTPGGALSLVCKASGFTFSSFNMFWVRQEPGKGLEWVAGIDDDGSYPNYGSAVKGRATISRDNGQSTLRLQLNNLRAEDTGTYFCAKSGYGGSWGGYIADDIDAWGHGTEVIVSS VL: ALTQPASVSANPGETVKITCSGSDSSYAGSYYYGWYQQKAPGSAPVTLIYYNNKRPSDIPSRFSGSLSGSTNTLTITGVRADDEAVYFCGSADNSGAAFGAGTTLTVL | – | – | – | – | 40 nM |
